Experimental data published in PMC3444475.
Read-outs that look alike come from different tables or passages of the source.

Legend:
[1] = target: integrin α2β1 α2 ligand binding domain (Homo sapiens) (UniProt P17301); conditions: cited from earlier work
[2] = target: integrin α5β1 (Homo sapiens) (UniProt P08648); conditions: cited from earlier work
α5β1 integrin = α5β1 integrin (UniProt P08648); experiment: optical biosensor (IAsys); α5β1 integrin immobilised; free LG3 at 3.1×10^−8 M to 3.1×10^−7 M, D3904A DV at 8.0×10^−8 M to 4.0×10^−7 M; global fitting; Kd calculated as koff/kon
[3] = target: integrin α2β1 α2 ligand binding domain (Homo sapiens) (UniProt P17301); conditions: cited from earlier work; remark: listed apart in the source

Sequence of α5β1 integrin (P08648 42-1049, chain 1 of 2): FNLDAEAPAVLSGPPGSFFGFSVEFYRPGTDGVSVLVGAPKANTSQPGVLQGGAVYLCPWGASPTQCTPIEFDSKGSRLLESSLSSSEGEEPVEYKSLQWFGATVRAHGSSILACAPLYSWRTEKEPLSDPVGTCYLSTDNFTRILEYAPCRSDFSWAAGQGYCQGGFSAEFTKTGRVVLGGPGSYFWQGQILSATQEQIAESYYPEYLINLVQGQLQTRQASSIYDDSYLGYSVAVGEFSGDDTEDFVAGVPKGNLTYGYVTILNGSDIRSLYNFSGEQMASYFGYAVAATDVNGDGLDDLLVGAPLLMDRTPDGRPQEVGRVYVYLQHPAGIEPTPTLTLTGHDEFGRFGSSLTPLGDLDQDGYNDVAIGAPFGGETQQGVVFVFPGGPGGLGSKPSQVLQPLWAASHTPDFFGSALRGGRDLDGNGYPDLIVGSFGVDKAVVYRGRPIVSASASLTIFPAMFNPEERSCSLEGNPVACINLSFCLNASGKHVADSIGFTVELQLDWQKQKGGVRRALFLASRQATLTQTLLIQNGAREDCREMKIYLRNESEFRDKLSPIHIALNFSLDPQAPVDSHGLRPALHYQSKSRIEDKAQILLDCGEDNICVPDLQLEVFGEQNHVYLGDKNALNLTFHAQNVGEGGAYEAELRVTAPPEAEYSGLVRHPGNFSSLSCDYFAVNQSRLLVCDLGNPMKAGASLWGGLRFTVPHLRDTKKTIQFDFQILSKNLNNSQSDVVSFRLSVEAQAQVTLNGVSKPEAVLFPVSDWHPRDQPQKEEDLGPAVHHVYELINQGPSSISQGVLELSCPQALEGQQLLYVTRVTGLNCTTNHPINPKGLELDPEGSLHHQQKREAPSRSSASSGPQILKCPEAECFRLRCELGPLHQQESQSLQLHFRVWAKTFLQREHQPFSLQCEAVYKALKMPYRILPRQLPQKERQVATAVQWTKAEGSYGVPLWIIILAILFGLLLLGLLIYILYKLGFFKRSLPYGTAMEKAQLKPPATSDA
Sequence of α5β1 integrin (P05556 21-798, chain 2 of 2, further chain): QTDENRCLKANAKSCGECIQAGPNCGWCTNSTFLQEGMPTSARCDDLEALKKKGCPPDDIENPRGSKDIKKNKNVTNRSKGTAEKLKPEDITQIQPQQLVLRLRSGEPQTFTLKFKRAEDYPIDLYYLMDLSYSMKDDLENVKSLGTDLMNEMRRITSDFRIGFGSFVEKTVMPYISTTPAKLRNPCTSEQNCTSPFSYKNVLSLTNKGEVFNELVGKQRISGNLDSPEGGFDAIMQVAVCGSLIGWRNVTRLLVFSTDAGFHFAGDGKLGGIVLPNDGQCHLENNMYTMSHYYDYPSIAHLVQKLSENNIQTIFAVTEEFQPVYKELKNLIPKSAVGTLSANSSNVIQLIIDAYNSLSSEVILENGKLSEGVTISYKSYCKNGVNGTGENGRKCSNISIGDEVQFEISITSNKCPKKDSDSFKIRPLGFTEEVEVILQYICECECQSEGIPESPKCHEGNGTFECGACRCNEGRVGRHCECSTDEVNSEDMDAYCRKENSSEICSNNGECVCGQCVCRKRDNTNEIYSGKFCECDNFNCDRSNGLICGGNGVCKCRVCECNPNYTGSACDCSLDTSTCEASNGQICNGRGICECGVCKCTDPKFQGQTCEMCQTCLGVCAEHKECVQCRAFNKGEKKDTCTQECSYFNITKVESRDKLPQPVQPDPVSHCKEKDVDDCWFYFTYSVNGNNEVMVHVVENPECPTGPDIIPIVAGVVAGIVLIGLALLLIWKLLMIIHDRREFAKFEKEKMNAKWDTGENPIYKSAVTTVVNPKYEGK
Sequence of integrin α2β1 α2 ligand binding domain (Homo sapiens) (P17301 30-1132, chain 1 of 2): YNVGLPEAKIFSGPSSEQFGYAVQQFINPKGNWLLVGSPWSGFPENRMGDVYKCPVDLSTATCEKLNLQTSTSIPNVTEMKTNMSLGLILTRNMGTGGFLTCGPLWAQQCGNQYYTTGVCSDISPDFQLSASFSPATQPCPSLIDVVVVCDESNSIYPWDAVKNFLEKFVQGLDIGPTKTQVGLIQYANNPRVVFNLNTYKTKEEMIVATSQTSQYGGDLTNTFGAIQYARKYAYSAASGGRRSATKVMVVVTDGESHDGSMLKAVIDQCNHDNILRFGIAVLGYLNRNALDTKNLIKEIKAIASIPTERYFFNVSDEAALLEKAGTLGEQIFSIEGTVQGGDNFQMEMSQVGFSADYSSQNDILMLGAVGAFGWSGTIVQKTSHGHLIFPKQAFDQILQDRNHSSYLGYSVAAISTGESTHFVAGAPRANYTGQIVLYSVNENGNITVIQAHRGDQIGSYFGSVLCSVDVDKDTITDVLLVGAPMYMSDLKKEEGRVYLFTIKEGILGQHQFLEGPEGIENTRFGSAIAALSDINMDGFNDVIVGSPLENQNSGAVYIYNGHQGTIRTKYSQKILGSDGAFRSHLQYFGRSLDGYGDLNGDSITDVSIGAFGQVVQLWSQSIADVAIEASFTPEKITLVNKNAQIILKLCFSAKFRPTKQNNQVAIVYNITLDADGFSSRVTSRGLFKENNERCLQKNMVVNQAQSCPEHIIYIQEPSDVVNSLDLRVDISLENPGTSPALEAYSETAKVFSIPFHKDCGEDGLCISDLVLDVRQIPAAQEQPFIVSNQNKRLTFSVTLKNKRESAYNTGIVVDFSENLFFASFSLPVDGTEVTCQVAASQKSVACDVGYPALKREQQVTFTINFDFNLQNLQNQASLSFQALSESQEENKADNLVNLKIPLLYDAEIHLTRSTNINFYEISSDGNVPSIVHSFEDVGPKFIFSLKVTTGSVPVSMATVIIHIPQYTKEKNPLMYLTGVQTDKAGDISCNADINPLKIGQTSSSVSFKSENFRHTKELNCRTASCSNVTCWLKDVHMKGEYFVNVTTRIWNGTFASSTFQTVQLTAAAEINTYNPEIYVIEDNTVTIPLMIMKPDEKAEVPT
Sequence of integrin α2β1 α2 ligand binding domain (Homo sapiens) (P05556 21-728, chain 2 of 2, further chain): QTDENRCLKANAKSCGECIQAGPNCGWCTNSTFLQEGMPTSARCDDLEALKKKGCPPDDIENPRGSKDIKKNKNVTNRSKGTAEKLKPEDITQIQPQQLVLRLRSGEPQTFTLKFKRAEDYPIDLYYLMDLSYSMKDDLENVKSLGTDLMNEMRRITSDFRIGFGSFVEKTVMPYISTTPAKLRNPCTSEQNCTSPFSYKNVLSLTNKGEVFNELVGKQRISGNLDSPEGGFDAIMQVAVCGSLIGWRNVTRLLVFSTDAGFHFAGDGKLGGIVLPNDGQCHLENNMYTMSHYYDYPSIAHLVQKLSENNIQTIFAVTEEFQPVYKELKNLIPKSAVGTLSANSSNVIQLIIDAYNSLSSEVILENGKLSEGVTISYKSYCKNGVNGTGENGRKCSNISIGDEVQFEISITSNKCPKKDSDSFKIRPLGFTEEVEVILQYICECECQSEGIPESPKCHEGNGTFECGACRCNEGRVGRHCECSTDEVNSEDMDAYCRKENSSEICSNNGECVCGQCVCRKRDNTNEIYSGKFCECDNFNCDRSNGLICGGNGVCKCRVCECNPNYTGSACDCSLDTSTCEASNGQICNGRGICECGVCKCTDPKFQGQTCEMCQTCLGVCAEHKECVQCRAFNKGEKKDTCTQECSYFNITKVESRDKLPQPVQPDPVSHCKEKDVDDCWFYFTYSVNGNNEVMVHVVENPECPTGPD
Sequence of Perlecan domain V Domain V (P98160 3687-4391): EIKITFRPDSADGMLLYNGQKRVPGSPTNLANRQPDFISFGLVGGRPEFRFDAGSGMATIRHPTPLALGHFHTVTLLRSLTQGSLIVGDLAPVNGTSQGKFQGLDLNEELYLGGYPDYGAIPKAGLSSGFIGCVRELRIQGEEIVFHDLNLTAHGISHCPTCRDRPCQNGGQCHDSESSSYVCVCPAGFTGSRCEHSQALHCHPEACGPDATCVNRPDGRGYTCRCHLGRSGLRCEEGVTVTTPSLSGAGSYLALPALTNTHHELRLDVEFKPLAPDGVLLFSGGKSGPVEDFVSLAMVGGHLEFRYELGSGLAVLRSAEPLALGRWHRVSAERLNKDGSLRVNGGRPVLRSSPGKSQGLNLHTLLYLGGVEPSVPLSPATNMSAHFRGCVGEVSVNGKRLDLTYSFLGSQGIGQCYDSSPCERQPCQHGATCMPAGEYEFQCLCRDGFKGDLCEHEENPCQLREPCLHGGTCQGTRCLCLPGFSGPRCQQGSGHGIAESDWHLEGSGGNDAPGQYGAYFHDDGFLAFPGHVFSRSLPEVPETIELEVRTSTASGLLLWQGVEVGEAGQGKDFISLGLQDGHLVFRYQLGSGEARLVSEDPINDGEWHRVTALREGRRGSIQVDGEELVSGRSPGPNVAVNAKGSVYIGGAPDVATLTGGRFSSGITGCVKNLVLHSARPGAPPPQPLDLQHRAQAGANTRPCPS
Sequence of Perlecan LG3 LG3 (P98160 4194-4391): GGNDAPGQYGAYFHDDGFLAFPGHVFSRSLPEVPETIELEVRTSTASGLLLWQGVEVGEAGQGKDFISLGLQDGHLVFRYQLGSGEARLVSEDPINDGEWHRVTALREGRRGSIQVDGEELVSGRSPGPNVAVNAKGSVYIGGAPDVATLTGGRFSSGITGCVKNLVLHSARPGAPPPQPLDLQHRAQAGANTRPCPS

## Perlecan domain V Domain V (from UniProt P98160)
[1]
  Kd: 80 nM
[2]
  Kd: 160 nM

## D3904A DV (perlecan Domain V with A in place of the D of its DGR sequence) (domain or fragment; other documents disagree on this pair)
α5β1 integrin
  Kd: 370 nM
  koff: 0.22 s⁻¹
  kon: 600000 M⁻¹ s⁻¹

## Perlecan LG3 LG3 (from UniProt P98160)
[3]
  Kd: 1000 nM
